T1: PTPN13_1, Q12923
T1 sequence (Q12923 1088-1188, limits assumed, looked up): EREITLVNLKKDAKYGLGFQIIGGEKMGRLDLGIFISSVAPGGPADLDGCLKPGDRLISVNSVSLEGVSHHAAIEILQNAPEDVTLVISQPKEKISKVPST

T2: MPDZ_12, O75970
T2 sequence (O75970 1857-1958, limits assumed, looked up): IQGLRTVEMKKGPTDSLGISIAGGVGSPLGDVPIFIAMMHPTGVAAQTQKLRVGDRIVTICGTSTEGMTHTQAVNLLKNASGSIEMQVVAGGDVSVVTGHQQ

T3: PDZD2_2, O15018
T3 sequence (O15018 329-429, limits assumed, looked up): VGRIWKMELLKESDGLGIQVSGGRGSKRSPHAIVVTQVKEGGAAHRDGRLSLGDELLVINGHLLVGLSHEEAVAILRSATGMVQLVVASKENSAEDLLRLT

T4: MPDZ_5, O75970
T4 sequence (O75970 695-796, limits assumed, looked up): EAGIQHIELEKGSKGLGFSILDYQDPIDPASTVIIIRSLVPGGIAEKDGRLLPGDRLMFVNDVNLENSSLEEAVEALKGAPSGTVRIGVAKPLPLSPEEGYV

T5: APBA1_1, Q02410
T5 sequence (Q02410 651-752, limits assumed, looked up): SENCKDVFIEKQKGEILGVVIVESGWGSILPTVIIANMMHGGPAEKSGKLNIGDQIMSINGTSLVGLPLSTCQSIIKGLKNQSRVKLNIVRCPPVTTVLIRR

T6: TIAM2, Q8IVF5
T6 sequence (Q8IVF5 885-986, limits assumed, looked up): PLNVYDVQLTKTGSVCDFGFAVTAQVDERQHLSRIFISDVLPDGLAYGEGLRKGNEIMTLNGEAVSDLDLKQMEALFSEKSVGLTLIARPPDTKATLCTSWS

T7: RAPGEF6, Q8TEU7
T7 sequence (Q8TEU7 525-625, limits assumed, looked up): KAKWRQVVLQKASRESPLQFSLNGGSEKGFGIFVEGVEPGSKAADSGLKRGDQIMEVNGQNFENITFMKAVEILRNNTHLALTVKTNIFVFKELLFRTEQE

T8: GRIP1_2, Q9Y3R0
T8 sequence (Q9Y3R0 145-248, limits assumed, looked up): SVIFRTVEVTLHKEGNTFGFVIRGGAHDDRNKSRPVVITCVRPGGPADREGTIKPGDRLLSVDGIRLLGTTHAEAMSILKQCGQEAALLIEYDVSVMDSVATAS

T9: RHPN1, Q8TCX5
T9 sequence (Q8TCX5 508-602, limits assumed, looked up): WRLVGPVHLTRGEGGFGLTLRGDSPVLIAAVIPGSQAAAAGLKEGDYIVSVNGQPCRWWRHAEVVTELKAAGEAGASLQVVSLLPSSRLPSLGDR

T10: LNX2_3, Q8N448
T10 sequence (Q8N448 463-564, limits assumed, looked up): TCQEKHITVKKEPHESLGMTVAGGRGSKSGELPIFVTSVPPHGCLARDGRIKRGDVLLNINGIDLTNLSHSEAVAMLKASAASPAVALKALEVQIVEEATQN


Tests used:
Assay in all cases: holdup assay
Set-up in all cases: key: below the threshold = too weak to quantify, mostly under pKd 3.1 to 4
Details in all cases: plain residues with an end cap or a label only (N-terminal biotin on a linker: ado-ado)
PTPN13_1, Q12923 = target: T1, PTPN13_1, Q12923
MPDZ_12, O75970 = target: T2, MPDZ_12, O75970
DLG2_3, Q15700 = target: DLG2_3, Q15700
SNX27, Q96L92 = target: SNX27, Q96L92
PDZD2_2, O15018 = target: T3, PDZD2_2, O15018
Inadl_1, Q8NI35 = target: Inadl_1, Q8NI35
MPDZ_5, O75970 = target: T4, MPDZ_5, O75970
DLG4_1, P78352 = target: DLG4_1, P78352
FRMPD3, Q5JV73 = target: FRMPD3, Q5JV73
FRMPD2_1, Q68DX3 = target: FRMPD2_1, Q68DX3
HTRA2, O43464 = target: HTRA2, O43464
MAST2, Q6P0Q8 = target: MAST2, Q6P0Q8
MAGI2_2, Q86UL8 = target: MAGI2_2, Q86UL8
DLG4_3, P78352 = target: DLG4_3, P78352
APBA1_1, Q02410 = target: T5, APBA1_1, Q02410
NHERF4_1, Q86UT5-2 = target: NHERF4_1, Q86UT5-2
TIAM2, Q8IVF5 = target: T6, TIAM2, Q8IVF5
GRIP2_3, Q9C0E4 = target: GRIP2_3, Q9C0E4
LAP2, Q96RT1 = target: LAP2, Q96RT1
RAPGEF6, Q8TEU7 = target: T7, RAPGEF6, Q8TEU7
GRIP1_2, Q9Y3R0 = target: T8, GRIP1_2, Q9Y3R0
RHPN1, Q8TCX5 = target: T9, RHPN1, Q8TCX5
PARD3_3, Q8TEW0 = target: PARD3_3, Q8TEW0
LNX2_3, Q8N448 = target: T10, LNX2_3, Q8N448
GRIP2_7, Q9C0E4 = target: GRIP2_7, Q9C0E4
DLG1_1, Q12959 = target: DLG1_1, Q12959
NOS1, P29475 = target: NOS1, P29475
LNX1_2, Q8TBB1 = target: LNX1_2, Q8TBB1
Chain of LNX1_2, Q8TBB1 (Q8TBB1 371-470): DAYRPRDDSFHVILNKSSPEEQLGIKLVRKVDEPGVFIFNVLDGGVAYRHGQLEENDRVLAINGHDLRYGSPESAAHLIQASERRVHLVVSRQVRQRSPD

Chain of MAGI2_2, Q86UL8 (Q86UL8 410-522): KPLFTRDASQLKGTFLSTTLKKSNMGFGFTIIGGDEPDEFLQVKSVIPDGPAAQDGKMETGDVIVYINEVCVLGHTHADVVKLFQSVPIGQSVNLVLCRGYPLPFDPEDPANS
Chain of GRIP2_3, Q9C0E4 (Q9C0E4 238-339): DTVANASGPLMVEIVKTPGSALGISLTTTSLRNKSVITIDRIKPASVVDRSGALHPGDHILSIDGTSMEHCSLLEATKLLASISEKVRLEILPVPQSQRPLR
Chain of PARD3_3, Q8TEW0 (Q8TEW0 582-685): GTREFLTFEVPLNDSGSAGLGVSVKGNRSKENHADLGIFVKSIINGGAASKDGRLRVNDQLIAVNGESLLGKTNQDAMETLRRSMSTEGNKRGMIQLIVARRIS
Chain of FRMPD2_1, Q68DX3 (Q68DX3 770-861): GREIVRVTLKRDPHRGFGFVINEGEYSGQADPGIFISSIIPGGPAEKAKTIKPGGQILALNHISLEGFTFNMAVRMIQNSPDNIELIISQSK
Chain of GRIP2_7, Q9C0E4 (Q9C0E4 934-1023): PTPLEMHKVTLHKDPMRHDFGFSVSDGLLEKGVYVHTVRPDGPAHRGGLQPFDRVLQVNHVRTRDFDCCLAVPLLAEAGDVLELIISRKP
Chain of LAP2, Q96RT1 (Q96RT1 other isoform, or with tags, fused parts or gaps): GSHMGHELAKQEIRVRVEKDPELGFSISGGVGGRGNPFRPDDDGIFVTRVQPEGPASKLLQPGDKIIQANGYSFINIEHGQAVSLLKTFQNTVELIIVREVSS
Chain of NOS1, P29475 (P29475 9-101): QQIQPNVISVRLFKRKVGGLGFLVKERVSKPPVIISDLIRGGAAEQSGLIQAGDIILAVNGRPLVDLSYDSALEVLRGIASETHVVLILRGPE
Chain of DLG4_3, P78352 (P78352 306-403): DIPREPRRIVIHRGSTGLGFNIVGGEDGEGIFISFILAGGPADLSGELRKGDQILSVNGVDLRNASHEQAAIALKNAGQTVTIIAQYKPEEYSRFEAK
Chain of HTRA2, O43464 (O43464 355-458): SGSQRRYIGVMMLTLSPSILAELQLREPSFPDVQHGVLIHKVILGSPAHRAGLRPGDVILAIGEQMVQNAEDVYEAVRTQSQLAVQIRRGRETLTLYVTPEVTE
Chain of Inadl_1, Q8NI35 (Q8NI35 113-229): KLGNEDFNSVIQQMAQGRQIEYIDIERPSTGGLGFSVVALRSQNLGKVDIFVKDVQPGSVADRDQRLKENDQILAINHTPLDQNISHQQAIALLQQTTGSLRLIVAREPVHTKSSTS
Chain of MAST2, Q6P0Q8 (Q6P0Q8 1099-1202): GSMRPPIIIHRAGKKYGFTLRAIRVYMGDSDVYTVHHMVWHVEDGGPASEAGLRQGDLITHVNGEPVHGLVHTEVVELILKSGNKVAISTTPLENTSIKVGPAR
Chain of FRMPD3, Q5JV73 (Q5JV73 12-100): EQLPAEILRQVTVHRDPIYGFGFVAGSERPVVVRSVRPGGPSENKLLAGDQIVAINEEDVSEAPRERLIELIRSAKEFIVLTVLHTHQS
Chain of DLG4_1, P78352 (P78352 62-152): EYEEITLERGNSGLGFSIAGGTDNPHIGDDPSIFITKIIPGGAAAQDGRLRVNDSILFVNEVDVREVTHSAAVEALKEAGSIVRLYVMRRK
Chain of NHERF4_1, Q86UT5-2 (Q86UT5 other isoform, or with tags, fused parts or gaps): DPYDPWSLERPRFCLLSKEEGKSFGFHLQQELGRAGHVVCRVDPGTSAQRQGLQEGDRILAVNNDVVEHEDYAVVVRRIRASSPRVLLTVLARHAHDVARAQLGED

Row | pKd (PTPN13_1, Q12923) | pKd (MPDZ_12, O75970) | pKd (DLG2_3, Q15700) | pKd (SNX27, Q96L92) | pKd (PDZD2_2, O15018) | pKd (Inadl_1, Q8NI35) | pKd (MPDZ_5, O75970) | pKd (DLG4_1, P78352) | pKd (FRMPD3, Q5JV73) | pKd (FRMPD2_1, Q68DX3) | pKd (HTRA2, O43464) | pKd (MAST2, Q6P0Q8) | pKd (MAGI2_2, Q86UL8) | pKd (DLG4_3, P78352) | pKd (APBA1_1, Q02410) | pKd (NHERF4_1, Q86UT5-2) | pKd (TIAM2, Q8IVF5) | pKd (GRIP2_3, Q9C0E4) | pKd (LAP2, Q96RT1) | pKd (RAPGEF6, Q8TEU7) | Binder | further results
1 | below the threshold | below the threshold | 3.56 | below the threshold | below the threshold | below the threshold | below the threshold | below the threshold | below the threshold | below the threshold | below the threshold | below the threshold | below the threshold | below the threshold | below the threshold | below the threshold | 3.96 | below the threshold | below the threshold | below the threshold | MLPANYVEAI [NEB, P20929] | pKd (GRIP1_2, Q9Y3R0): below the threshold; pKd (RHPN1, Q8TCX5): below the threshold; pKd (PARD3_3, Q8TEW0): below the threshold; pKd (LNX2_3, Q8N448): below the threshold; pKd (GRIP2_7, Q9C0E4): below the threshold; pKd (DLG1_1, Q12959): below the threshold; pKd (NOS1, P29475): 3.52; pKd (LNX1_2, Q8TBB1): below the threshold
2 | below the threshold | 4.1 | 3.83 | 3.56 | 5.57 | 4.03 | below the threshold | below the threshold | below the threshold | 3.71 | 4.25 | below the threshold | below the threshold | below the threshold | 3.69 | 3.57 | 4.21 | below the threshold | 3.81 | below the threshold | SGDGKTSVWI [GJC1, P36383] | pKd (GRIP1_2, Q9Y3R0): below the threshold; pKd (RHPN1, Q8TCX5): below the threshold; pKd (PARD3_3, Q8TEW0): 4.62; pKd (LNX2_3, Q8N448): below the threshold; pKd (GRIP2_7, Q9C0E4): 4.37; pKd (DLG1_1, Q12959): below the threshold; pKd (NOS1, P29475): 4.1; pKd (LNX1_2, Q8TBB1): 4.03
3 | below the threshold | below the threshold | 4.16 | 5.5 | 4.23 | below the threshold | below the threshold | 4.44 | below the threshold | below the threshold | below the threshold | 5.52 | 4.25 | 4.17 | below the threshold | below the threshold | below the threshold | below the threshold | 3.54 | below the threshold | TKDKVQETQI [LRRC4, Q9HBW1] | pKd (GRIP1_2, Q9Y3R0): below the threshold; pKd (RHPN1, Q8TCX5): 4.84; pKd (PARD3_3, Q8TEW0): 3.81; pKd (LNX2_3, Q8N448): below the threshold; pKd (GRIP2_7, Q9C0E4): below the threshold; pKd (DLG1_1, Q12959): 4.42; pKd (NOS1, P29475): 4.02; pKd (LNX1_2, Q8TBB1): below the threshold
4 | below the threshold | below the threshold | below the threshold | 4.95 | 4.97 | below the threshold | below the threshold | 4.12 | below the threshold | below the threshold | below the threshold | 5.06 | 3.51 | 3.7 | below the threshold | below the threshold | below the threshold | below the threshold | 3.64 | below the threshold | EPAKETTTNV [SLC2A3, P11169] | pKd (GRIP1_2, Q9Y3R0): below the threshold; pKd (RHPN1, Q8TCX5): 4.35; pKd (PARD3_3, Q8TEW0): below the threshold; pKd (LNX2_3, Q8N448): below the threshold; pKd (GRIP2_7, Q9C0E4): below the threshold; pKd (DLG1_1, Q12959): 3.94; pKd (NOS1, P29475): below the threshold; pKd (LNX1_2, Q8TBB1): below the threshold
5 | below the threshold | below the threshold | below the threshold | 4.43 | 4.45 | below the threshold | below the threshold | 3.83 | below the threshold | below the threshold | below the threshold | 4.27 | 3.64 | below the threshold | below the threshold | below the threshold | below the threshold | below the threshold | 3.52 | below the threshold | PGKKPEDSRV [SLCO2B1, O94956] | pKd (GRIP1_2, Q9Y3R0): below the threshold; pKd (RHPN1, Q8TCX5): 3.85; pKd (PARD3_3, Q8TEW0): below the threshold; pKd (LNX2_3, Q8N448): below the threshold; pKd (GRIP2_7, Q9C0E4): below the threshold; pKd (DLG1_1, Q12959): 3.62; pKd (NOS1, P29475): below the threshold; pKd (LNX1_2, Q8TBB1): below the threshold
